# From patent publication US11230581B2, “Peptides and combination of peptides for use in immunotherapy against ovarian cancer and other cancers” (Immatics Biotechnologies GmbH, priority 2015, dated 2022)
# Target: HLA-A*02:01 (Homo sapiens, UniProt P04439, D140Y/D185E/D98H/E176V/E277Q/G131W/G231S/I119V/I121R/I166T/I218V/L300P/L318F/N151K/N90K/P208A/P217A/Q86G/Q94H/R138H/R169H/T345S)
# Assay: MHC binding assay (UV-ligand exchange, β2m ELISA, peptide exchange yield)
# Details: binding of HLA-class I restricted peptides to HLA-A*02:01, UV-ligand exchange
# How it was run: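 Peptide-MHC complexes formed by UV-ligand exchange, cleaving a UV-sensitive placeholder peptide in favour of the test peptide. Exchange yield measured by ELISA: monomers diluted 100-fold onto streptavidin-coated plates, 1 h 37 °C, detected with 2 ug/ml HRP anti-β2m and TMB, absorbance at 450 nm.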
row,Substance,"Peptide exchange (MHC class I binding score, peptide exchange yield)"
1,569 (KLVDRTWTL; listed as Homo sapiens) [compound 569],“+++” (≥50 = +++)
2,570 (ALANQIPTV; listed as Homo sapiens) [compound 570],“++” (≥20% = ++)
3,571 (LLLTTIPQI; listed as Homo sapiens) [compound 571],“+++” (≥50 = +++)
4,572 (ALADLIEKELSV; listed as Homo sapiens) [compound 572],“+++” (≥50 = +++)
5,573 (ILVANAIVGV; listed as Homo sapiens) [compound 573],“+++” (≥50 = +++)
6,574 (YLLQEPPRTV; listed as Homo sapiens) [compound 574],“++” (≥20% = ++)
7,575 (YLISQVEGHQV; listed as Homo sapiens) [compound 575],“+++” (≥50 = +++)
8,576 (ILLNNSGQIKL; listed as Homo sapiens) [compound 576],“++++” (≥75% = ++++)
9,577 (VMFEDGVLMRL; listed as Homo sapiens) [compound 577],“+++” (≥50 = +++)
10,578 (FLDPGGPMMKL; listed as Homo sapiens) [compound 578],“+++” (≥50 = +++)
11,579 (NLMEMVAQL; listed as Homo sapiens) [compound 579],“++” (≥20% = ++)
12,580 (LLMENAERV; listed as Homo sapiens) [compound 580],“++” (≥20% = ++)
13,582 (TLCDVILMV; listed as Homo sapiens) [compound 582],“+++” (≥50 = +++)
14,583 (ILANDGVLLAA; listed as Homo sapiens) [compound 583],“+++” (≥50 = +++)
15,584 (ALAEVAAMENV; listed as Homo sapiens) [compound 584],“+++” (≥50 = +++)
16,585 (ALWDLAADKQTL; listed as Homo sapiens) [compound 585],“++++” (≥75% = ++++)
17,586 (KLKPGDLVGV; listed as Homo sapiens) [compound 586],“+++” (≥50 = +++)
18,587 (VMNDRLYAI; listed as Homo sapiens) [compound 587],“+++” (≥50 = +++)
19,588 (SLLPLSHLV; listed as Homo sapiens) [compound 588],“+++” (≥50 = +++)
20,589 (KLYPQLPAEI; listed as Homo sapiens) [compound 589],“+++” (≥50 = +++)
21,590 (SLIEKLWQT; listed as Homo sapiens) [compound 590],“++” (≥20% = ++)
22,591 (SMAELDIKL; listed as Homo sapiens) [compound 591],“+++” (≥50 = +++)
23,592 (RLLSAAENFL; listed as Homo sapiens) [compound 592],“+++” (≥50 = +++)
24,593 (GLPRFGIEMV; listed as Homo sapiens) [compound 593],“+++” (≥50 = +++)
25,594 (IMLKGDNITL; listed as Homo sapiens) [compound 594],“+++” (≥50 = +++)
26,595 (VLLSIYPRV; listed as Homo sapiens) [compound 595],“+++” (≥50 = +++)
27,596 (ALLDQTKTLAESAL; listed as Homo sapiens) [compound 596],“+++” (≥50 = +++)
28,597 (KLLEGQVIQL; listed as Homo sapiens) [compound 597],“+++” (≥50 = +++)

row,Substance,"Peptide exchange (MHC class I binding score, peptide exchange yield)"
1,598 (FLFPHSVLV; listed as Homo sapiens) [compound 598],“+++” (≥50 = +++)
2,599 (YLLNDASLISV; listed as Homo sapiens) [compound 599],“+++” (≥50 = +++)
3,600 (ALAAPDIVPAL; listed as Homo sapiens) [compound 600],“+++” (≥50 = +++)
4,601 (SAFPFPVTV; listed as Homo sapiens) [compound 601],“+++” (≥50 = +++)
5,602 (YLLEQIKLIEV; listed as Homo sapiens) [compound 602],“++++” (≥75% = ++++)
6,603 (FLIEPEHVNTV; listed as Homo sapiens) [compound 603],“++” (≥20% = ++)
7,604 (SILDRDDIFV; listed as Homo sapiens) [compound 604],“+++” (≥50 = +++)
8,605 (KLYEAVPQL; listed as Homo sapiens) [compound 605],“+++” (≥50 = +++)
9,606 (ALWETEVYI; listed as Homo sapiens) [compound 606],“+++” (≥50 = +++)
10,607 (RLYSGISGLEL; listed as Homo sapiens) [compound 607],“+++” (≥50 = +++)
11,608 (SLLSVSHAL; listed as Homo sapiens) [compound 608],“+++” (≥50 = +++)
12,609 (ALWKQLLEL; listed as Homo sapiens) [compound 609],“+++” (≥50 = +++)
13,610 (LLAPTPYIIGV; listed as Homo sapiens) [compound 610],“+++” (≥50 = +++)
14,611 (YLLDDGTLVV; listed as Homo sapiens) [compound 611],“++++” (≥75% = ++++)
15,612 (YLYNEGLSV; listed as Homo sapiens) [compound 612],“+++” (≥50 = +++)
16,613 (RLLPPGAVVAV; listed as Homo sapiens) [compound 613],“+++” (≥50 = +++)
17,614 (LLLPDQPPYHL; listed as Homo sapiens) [compound 614],“+++” (≥50 = +++)
18,615 (VLPPDTDPA; listed as Homo sapiens) [compound 615],“++” (≥20% = ++)
19,616 (VLIDEVESL; listed as Homo sapiens) [compound 616],“+++” (≥50 = +++)
20,617 (ALMYESEKVGV; listed as Homo sapiens) [compound 617],“+++” (≥50 = +++)
21,618 (VLFDSESIGIYV; listed as Homo sapiens) [compound 618],“+++” (≥50 = +++)
22,619 (ALQDRVPLA; listed as Homo sapiens) [compound 619],“+++” (≥50 = +++)
23,620 (KLLNKIYEA; listed as Homo sapiens) [compound 620],“++++” (≥75% = ++++)
24,621 (VLMDRLPSLL; listed as Homo sapiens) [compound 621],“++++” (≥75% = ++++)
25,622 (RLLGEEVVRVLQA; listed as Homo sapiens) [compound 622],“+++” (≥50 = +++)
26,623 (YLVEDIQHI; listed as Homo sapiens) [compound 623],“+++” (≥50 = +++)
27,635 (SLDSTLHAV; listed as Homo sapiens) [compound 635],“+++” (≥50 = +++)
